Measured values taken from PMC8551311, “Energy transfer between the nicotinamide nucleotide transhydrogenase and ATP synthase of Escherichia coli” (Scientific Reports, 2021).

Key:
Test in all cases: purified protein
Assay type in all cases: biochemical, Escherichia coli
[1] = substrate: NC(=O)C1=CN([C@@H]2O[C@H](COP(=O)(O)OP(=O)(O)OC[C@H]3O[C@@H](n4cnc5c(N)ncnc54)[C@H](OP(=O)(O)O)[C@@H]3O)[C@@H](O)[C@H]2O)C=CC1; conditions: apparent, reverse reaction, 0.5 mM NAD+ held constant by lactate dehydrogenase/pyruvate, 50 mM HEPES pH 7.5, 0.1% DDM
[2] = substrate: NC(=O)c1ccc[n+]([C@@H]2O[C@H](COP(=O)(O)OP(=O)(O)OC[C@H]3O[C@@H](n4cnc5c(N)ncnc54)[C@H](O)[C@@H]3O)[C@@H](O)[C@H]2O)c1; conditions: apparent, reverse reaction, 100 μM NADPH held constant by glucose-6-phosphate dehydrogenase/D-glucose-6-phosphate, 5 mM MgCl2, 50 mM HEPES pH 7.5, 0.1% DDM
[3] = substrate: NC(=O)C1=CN([C@@H]2O[C@H](COP(=O)(O)OP(=O)(O)OC[C@H]3O[C@@H](n4cnc5c(N)ncnc54)[C@H](O)[C@@H]3O)[C@@H](O)[C@H]2O)C=CC1; conditions: apparent, forward reaction, 0.5 mM NADP+ held constant by glutathione reductase/oxidized glutathione, 50 mM HEPES pH 7.5, 0.1% DDM
[4] = substrate: NC(=O)c1ccc[n+]([C@@H]2O[C@H](COP(=O)(O)OP(=O)(O)OC[C@H]3O[C@@H](n4cnc5c(N)ncnc54)[C@H](OP(=O)(O)O)[C@@H]3O)[C@@H](O)[C@H]2O)c1; conditions: apparent, forward reaction, NADH held constant by alcohol dehydrogenase/ethanol (50 μM in methods, 500 μM in results), 6 mM hydrazine, 50 mM HEPES pH 7.5, 0.1% DDM

B1: E. coli transhydrogenase (TH, EcTH) (Escherichia coli K-12) (protein)
chain 1: MRIGIPRERLTNETRVAATPKTVEQLLKLGFTVAVESGAGQLASFDDKAFVQAGAEIVEGNSVWQSEIILKVNAPLDDEIALLNPGTTLVSFIWPAQNPELMQKLAERNVTVMAMDSVPRISRAQSLDALSSMANIAGYRAIVEAAHEFGRFFTGQITAAGKVPPAKVMVIGAGVAGLAAIGAANSLGAIVRAFDTRPEVKEQVQSMGAEFLELDFKEEAGSGDGYAKVMSDAFIKAEMELFAAQAKEVDIIVTTALIPGKPAPKLITREMVDSMKAGSVIVDLAAQNGGNCEYTVPGEIFTTENGVKVIGYTDLPGRLPTQSSQLYGTNLVNLLKLLCKEKDGNITVDFDDVVIRGVTVIRAGEITWPAPPIQVSAQPQAAQKAAPEVKTEEKCTCSPWRKYALMALAIILFGWMASVAPKEFLGHFTVFALACVVGYYVVWNVSHALHTPLMSVTNAISGIIVVGALLQIGQGGWVSFLSFIAVLIASINIFGGFTVTQRMLKMFRKN
chain 2: MSGGLVTAAYIVAAILFIFSLAGLSKHETSRQGNNFGIAGMAIALIATIFGPDTGNVGWILLAMVIGGAIGIRLAKKVEMTEMPELVAILHSFVGLAAVLVGFNSYLHHDAGMAPILVNIHLTEVFLGIFIGAVTFTGSVVAFGKLCGKISSKPLMLPNRHKMNLAALVVSFLLLIVFVRTDSVGLQVLALLIMTAIALVFGWHLVASIGGADMPVVVSMLNSYSGWAAAAAGFMLSNDLLIVTGALVGSSGAILSYIMCKAMNRSFISVIAGGFGTDGSSTGDDQEVGEHREITAEETAELLKNSHSVIITPGYGMAVAQAQYPVAEITEKLRARGINVRFGIHPVAGRLPGHMNVLLAEAKVPYDIVLEMDEINDDFADTDTVLVIGANDTVNPAAQDDPKSPIAGMPVLEVWKAQNVIVFKRSMNTGYAGVQNPLFFKENTHMLFGDAKASVDAILKAL
B1 was tested. Which Km [1] did it give?
Its Km is 4.1 ± 1.2 µM.

What about the Km [2] of the same protein?
The Km was 108 ± 12 µM.

And the Km [3]?
Its Km is 6.8 ± 1 µM.

What about the Km [4] of the same protein?
Its Km is 37 ± 7 µM.
